{
  "source": "paper PMC5910447",
  "about": "“Efficient production of secretory Streptomyces clavuligerus β-lactamase inhibitory protein (BLIP) in Pichia pastoris” (AMB Express, 2018)",
  "binders": {"B1": {"name": "β-Lactamase inhibitory protein (BLIP), recombinant, secreted by P. pastoris (EAEAEF-mature BLIP) (natural protein, Streptomyces clavuligerus)", "chain": "EAEAEFAGVMTGAKFTQIQFGMTRQQVLDIAGAENCETGGSFGDSIHCRGHAAGDYYAYATFGFTSAAADAKVDSKSQEKLLAPSAPTLTLAKFNQVTVGMTRAQVLATVGQGSCTTWSEYYPAYPSTAGVTLSLSCFDVDGYSSTGFYRGSAHLWFTDGVLQGKRQWDLV", "notes": "peptide left at the N-terminus after Kex2 cleavage of the α-factor mating signal; the blip gene's own terminator was kept, so no C-terminal vector tags are expected (calculated mass 18,219.25 matches EAEAEF-mature BLIP); also called recombinant BLIP; P. pastoris-expressed BLIP; source: P. pastoris X-33 (pPICZαA/BLIP, methanol induction), secreted; recovered from the culture supernatant without …"}},
  "target": "T1, TEM-1 β-lactamase (UniProt P62593 24-286)",
  "T1 construct": "TEM-1 β-lactamase (class A); whether the construct carries a tag or its signal peptide is not known; also called TEM-1 enzyme; source: E. coli haboring pRSET-K/TEM-1 β-lactamase (lab stock); production procedure in Additional file 1: Methods",
  "T1 sequence (P62593 24-286)": "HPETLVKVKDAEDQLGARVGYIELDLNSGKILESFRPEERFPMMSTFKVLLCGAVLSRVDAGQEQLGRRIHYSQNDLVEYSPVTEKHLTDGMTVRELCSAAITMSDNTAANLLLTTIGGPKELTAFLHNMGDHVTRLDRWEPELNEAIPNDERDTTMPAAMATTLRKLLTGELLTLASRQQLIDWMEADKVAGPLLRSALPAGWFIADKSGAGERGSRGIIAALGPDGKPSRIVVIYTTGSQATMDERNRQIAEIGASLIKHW",
  "experiment": "enzyme inhibition assay (nitrocefin hydrolysis, free β-lactamase against inhibitor concentration); 1.5 nM TEM-1 β-lactamase pre-incubated with 0–15 nM BLIP in 50 mM sodium phosphate buffer with 1 mg/mL bovine serum albumin for 2 h at 25 °C; then 21 μM nitrocefin, absorbance at 500 nm; nonlinear fit to Eq. 1; Ki* (equilibrium dissociation constant) equivalent to Ki",
  "data": [
    {"binder": "B1", "values": [
      {"measurement": "Ki", "value": "0.55 ± 0.07", "unit": "nM"}
    ]}
  ]
}
